Reference: patent US20220298229A1 (ICHOR BIOLOGICS, published 2022)

Target: T1, Vesicular Stomatitis Virus Glycoprotein (VSV-G) (Vesicular Stomatitis Virus, UniProt P03522 17-511)
T1 construct: whole, on cells
Assay: flow cytometry, VSV-G-transfected 293T cells (FIG. 4C)

T1 sequence (P03522 17-511): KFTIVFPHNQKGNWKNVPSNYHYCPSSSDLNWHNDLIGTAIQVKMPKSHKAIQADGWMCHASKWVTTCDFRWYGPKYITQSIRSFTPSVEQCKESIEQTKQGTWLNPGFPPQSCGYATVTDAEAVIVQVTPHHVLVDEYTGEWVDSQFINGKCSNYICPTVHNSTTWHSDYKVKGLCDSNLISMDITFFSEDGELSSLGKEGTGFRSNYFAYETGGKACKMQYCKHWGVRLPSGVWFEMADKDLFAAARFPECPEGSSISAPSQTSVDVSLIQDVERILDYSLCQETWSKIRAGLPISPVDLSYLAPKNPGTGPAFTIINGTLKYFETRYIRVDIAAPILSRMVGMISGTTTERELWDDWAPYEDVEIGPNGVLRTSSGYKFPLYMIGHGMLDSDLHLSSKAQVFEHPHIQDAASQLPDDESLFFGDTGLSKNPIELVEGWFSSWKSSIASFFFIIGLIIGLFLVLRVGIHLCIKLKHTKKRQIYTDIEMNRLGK

B1: monoclonal antibody MIB22 (antibody, V domains shown)
VH: EVQLVQSGAELKKPGSSVKVSCKASGGTFVGYGVSWVRQVPGHGPEWMGGFSPISNTANYAERFQGRVTMIVDGSTSTAYMELRSLRSEDTAIYYCARSCDFWNAYYNNWFDPWGQGTLVTVSS
VL: AQSALTQPASVSGSPGQSITISCTGTSSDFADYNSVSWYQQHPGKAPKLLIFDVNDRPSGVSHRFSGSKSGNTASLTISGLQAEDESDYYCTSYTICNSYVFGTGTKVTVLG
notes: also called MIB22 IgG; first antibody
- binding result: no binding (tested: 1 to 15 µg/ml)
